In the supplement of paper PMC9876800:

Test system: peptide library, one residue held at a place counted from the S/T acceptor
Assay: relative phosphorylation of the sub-library (ratio to the mean residue at this position); human; higher = residue favoured
How it was run: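 Relative sub-library phosphorylation is a ratio to the mean residue at the same position. Purified recombinant kinases were incubated under kinase-specific conditions with biotinylated degenerate peptide sub-libraries, each fixing one residue at one position around a central Ser/Thr, using 50 μM peptide and 50 μM ATP spiked with γ-32P-ATP for 90 min. Spots captured on streptavidin membranes were phosphorimaged and quantified by densitometry.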

TP53RK, construct: Full length, sequence (Q96S44 whole entry, looked up): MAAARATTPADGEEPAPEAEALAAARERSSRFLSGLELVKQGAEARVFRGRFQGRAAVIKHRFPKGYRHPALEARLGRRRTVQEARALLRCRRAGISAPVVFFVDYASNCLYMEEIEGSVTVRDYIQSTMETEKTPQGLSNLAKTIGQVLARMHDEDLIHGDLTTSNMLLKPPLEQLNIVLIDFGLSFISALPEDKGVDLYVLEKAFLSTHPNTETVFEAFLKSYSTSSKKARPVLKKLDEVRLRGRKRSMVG
MASTL, construct: Full length, sequence (Q96GX5 whole entry, looked up): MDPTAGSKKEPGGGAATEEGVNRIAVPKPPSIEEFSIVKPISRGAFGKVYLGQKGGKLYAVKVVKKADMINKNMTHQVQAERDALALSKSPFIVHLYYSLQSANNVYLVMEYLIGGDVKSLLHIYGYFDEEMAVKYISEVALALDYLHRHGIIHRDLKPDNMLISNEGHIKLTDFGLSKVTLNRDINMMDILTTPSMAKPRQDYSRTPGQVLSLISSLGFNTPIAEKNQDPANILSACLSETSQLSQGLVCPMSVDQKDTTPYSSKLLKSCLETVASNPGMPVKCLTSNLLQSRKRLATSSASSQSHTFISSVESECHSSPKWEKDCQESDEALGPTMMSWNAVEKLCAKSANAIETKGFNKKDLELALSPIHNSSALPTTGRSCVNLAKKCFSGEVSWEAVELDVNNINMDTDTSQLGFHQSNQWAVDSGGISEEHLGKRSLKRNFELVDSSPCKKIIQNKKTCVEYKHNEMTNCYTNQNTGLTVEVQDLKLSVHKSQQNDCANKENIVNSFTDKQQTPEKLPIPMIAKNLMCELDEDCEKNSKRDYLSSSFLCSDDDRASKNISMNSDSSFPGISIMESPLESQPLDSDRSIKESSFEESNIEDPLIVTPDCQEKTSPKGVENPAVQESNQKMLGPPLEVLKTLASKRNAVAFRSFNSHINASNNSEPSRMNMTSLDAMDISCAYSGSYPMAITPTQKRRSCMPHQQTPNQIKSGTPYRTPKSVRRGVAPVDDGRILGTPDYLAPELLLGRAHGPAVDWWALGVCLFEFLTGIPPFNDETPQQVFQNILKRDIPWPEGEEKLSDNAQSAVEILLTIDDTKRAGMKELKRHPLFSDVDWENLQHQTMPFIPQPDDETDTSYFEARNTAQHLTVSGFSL
CSNK1G3, construct: Full length, sequence (Q9Y6M4 whole entry, looked up): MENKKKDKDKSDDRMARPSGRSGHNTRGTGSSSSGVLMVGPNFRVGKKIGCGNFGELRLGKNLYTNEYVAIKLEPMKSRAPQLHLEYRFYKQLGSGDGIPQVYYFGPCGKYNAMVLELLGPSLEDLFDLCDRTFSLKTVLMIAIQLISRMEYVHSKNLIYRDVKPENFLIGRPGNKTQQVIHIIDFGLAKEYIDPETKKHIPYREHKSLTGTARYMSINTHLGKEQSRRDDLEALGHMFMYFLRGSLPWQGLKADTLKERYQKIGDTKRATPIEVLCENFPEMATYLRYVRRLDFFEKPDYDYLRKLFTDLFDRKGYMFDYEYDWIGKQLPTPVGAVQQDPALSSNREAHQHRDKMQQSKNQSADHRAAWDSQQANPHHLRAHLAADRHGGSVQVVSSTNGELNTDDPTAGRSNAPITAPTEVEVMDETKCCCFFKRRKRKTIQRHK
SGK3, construct: aa119-end, sequence (Q96BR1 119-496, looked up): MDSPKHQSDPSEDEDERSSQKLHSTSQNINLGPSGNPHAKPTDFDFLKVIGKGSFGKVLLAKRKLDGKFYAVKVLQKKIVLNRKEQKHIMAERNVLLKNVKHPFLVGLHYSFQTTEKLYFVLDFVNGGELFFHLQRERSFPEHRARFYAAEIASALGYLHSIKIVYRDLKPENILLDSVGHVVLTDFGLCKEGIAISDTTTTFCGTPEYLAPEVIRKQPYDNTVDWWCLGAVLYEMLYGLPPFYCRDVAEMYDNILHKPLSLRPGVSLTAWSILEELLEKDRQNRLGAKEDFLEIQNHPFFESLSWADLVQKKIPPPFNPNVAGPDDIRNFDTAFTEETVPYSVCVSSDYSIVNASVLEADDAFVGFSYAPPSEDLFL

MASTL, construct: Full length (from UniProt Q96GX5)
relative phosphorylation
Settings | at +1 | at +2 | at +3 | at +4 | at -1 | at -2 | at -3 | at -4 | at -5
A fixed | 0.775 | 1.04 | 0.823 | 1.03 | 0.921 | 0.862 | 0.89 | 1.04 | 1.22
D fixed | 0.64 | 0.706 | 0.711 | 0.972 | 0.826 | 0.719 | 0.63 | 0.69 | 0.66
E fixed | 0.62 | 0.693 | 0.766 | 0.951 | 0.769 | 0.611 | 0.679 | 0.717 | 0.639
F fixed | 1.95 | 1.38 | 1.3 | 0.962 | 0.948 | 1.74 | 1.13 | 1.02 | 1
G fixed | 1.59 | 0.711 | 1.14 | 0.867 | 1.46 | 1.13 | 1.02 | 1.2 | 1.28
H fixed | 0.772 | 0.99 | 0.949 | 1.07 | 1.01 | 1.51 | 1.43 | 1.31 | 1.47
I fixed | 1.21 | 1.23 | 1.19 | 0.878 | 0.543 | 0.585 | 0.66 | 0.696 | 0.841
K fixed | 0.534 | 0.531 | 0.573 | 0.841 | 0.87 | 0.579 | 0.927 | 0.956 | 0.889
L fixed | 1.06 | 0.959 | 1.1 | 0.941 | 1.06 | 0.579 | 0.715 | 0.656 | 0.941
M fixed | 1.71 | 1.15 | 1.15 | 1.02 | 1.25 | 0.846 | 1 | 0.938 | 0.94
N fixed | 0.789 | 0.95 | 0.749 | 1.05 | 1.06 | 1.16 | 1.03 | 1.34 | 1.05
P fixed | 0.664 | 0.65 | 0.704 | 1.31 | 1.59 | 0.804 | 1.01 | 0.965 | 1.07
Q fixed | 1.09 | 0.761 | 0.804 | 1.09 | 1.15 | 0.839 | 0.985 | 0.913 | 0.841
R fixed | 0.614 | 0.579 | 0.555 | 0.726 | 0.889 | 0.767 | 1.55 | 1 | 0.953
V fixed | 0.944 | 1.16 | 0.875 | 0.831 | 0.649 | 0.558 | 0.678 | 0.703 | 0.909
W fixed | 1.03 | 1.6 | 2.11 | 1.28 | 0.913 | 1.82 | 1.23 | 1.35 | 1.27
Y fixed | 1.01 | 1.9 | 1.5 | 1.18 | 1.1 | 1.9 | 1.42 | 1.49 | 1.03
pThr fixed | 1 | 0.912 | 0.984 | 1.27 | 0.833 | 0.827 | 0.939 | 0.844 | 0.94
pTyr fixed | 0.8 | 1.07 | 0.973 | 0.944 | 0.711 | 0.771 | 0.812 | 0.834 | 0.784

TP53RK, construct: Full length (from UniProt Q96S44)
relative phosphorylation
Settings | at +1 | at +2 | at +3 | at +4 | at -1 | at -2 | at -3 | at -4 | at -5
A fixed | 0.941 | 0.938 | 1.06 | 0.947 | 1.23 | 1.24 | 1.01 | 1.17 | 1.05
D fixed | 1.03 | 1.01 | 0.952 | 1.05 | 0.972 | 0.929 | 1.02 | 0.897 | 0.956
E fixed | 1.09 | 1.08 | 0.988 | 1.16 | 1 | 1.04 | 1.1 | 0.973 | 0.922
F fixed | 1.12 | 1.09 | 1.04 | 0.983 | 0.998 | 0.94 | 1.03 | 0.971 | 0.953
G fixed | 0.918 | 0.956 | 1.08 | 0.958 | 1.3 | 1.49 | 1.08 | 1.12 | 0.976
H fixed | 1.07 | 1.33 | 1.07 | 1.11 | 0.847 | 0.877 | 0.987 | 1.11 | 1.17
I fixed | 0.913 | 0.816 | 0.945 | 0.896 | 0.976 | 1.01 | 0.878 | 0.829 | 0.893
K fixed | 1.05 | 1.01 | 0.99 | 1.09 | 0.864 | 0.848 | 0.985 | 1.07 | 1.12
L fixed | 1.01 | 0.85 | 0.926 | 0.862 | 1.03 | 0.981 | 0.815 | 0.792 | 0.86
M fixed | 0.979 | 0.926 | 0.959 | 0.879 | 1.04 | 1.02 | 1.03 | 0.949 | 0.946
N fixed | 1.01 | 0.998 | 0.947 | 0.955 | 0.933 | 0.927 | 1.02 | 0.966 | 0.961
P fixed | 0.85 | 0.925 | 1.02 | 0.967 | 1.24 | 1.2 | 0.955 | 1.16 | 0.989
Q fixed | 1.04 | 0.975 | 0.953 | 1.08 | 0.897 | 0.906 | 1.06 | 1.04 | 0.903
R fixed | 0.973 | 0.971 | 0.964 | 1.01 | 0.857 | 0.853 | 1 | 1.03 | 1.12
V fixed | 0.917 | 0.885 | 0.949 | 0.838 | 0.964 | 0.989 | 0.894 | 0.931 | 0.962
W fixed | 1.05 | 1.13 | 1.04 | 1.15 | 0.907 | 0.867 | 1.14 | 1.07 | 1.16
Y fixed | 1.05 | 1.11 | 1.12 | 1.07 | 0.939 | 0.892 | 0.996 | 0.922 | 1.05
pThr fixed | 0.977 | 0.952 | 0.886 | 1.03 | 1.06 | 1.08 | 0.987 | 0.973 | 0.943
pTyr fixed | 1.05 | 1.11 | 1.02 | 1.01 | 3.48 | 1.31 | 1.08 | 0.942 | 0.944

SGK3, construct: aa119-end (from UniProt Q96BR1)
relative phosphorylation
Settings | at +1 | at +2 | at +3 | at +4 | at -1 | at -2 | at -3 | at -4 | at -5
A fixed | 0.678 | 1.24 | 1.05 | 1.13 | 1.04 | 1.27 | 0.733 | 1.07 | 1.07
D fixed | 0.294 | 0.423 | 0.901 | 0.91 | 0.498 | 0.2 | 0.186 | 0.53 | 0.497
E fixed | 0.369 | 0.236 | 1.05 | 0.892 | 0.462 | 0.194 | 0.21 | 0.661 | 0.509
F fixed | 2.98 | 0.836 | 1.09 | 0.843 | 0.672 | 0.609 | 0.352 | 0.749 | 0.836
G fixed | 0.575 | 0.701 | 1.21 | 1.24 | 1.77 | 0.992 | 0.663 | 1.23 | 1.18
H fixed | 0.707 | 1.32 | 1.05 | 1.13 | 1.1 | 1.2 | 1.74 | 1.05 | 1.05
I fixed | 1.71 | 1.18 | 0.918 | 0.896 | 0.455 | 0.33 | 0.305 | 0.778 | 0.641
K fixed | 0.807 | 0.987 | 0.995 | 1.08 | 1.71 | 3.22 | 2.08 | 1.73 | 1.94
L fixed | 1.29 | 1.59 | 1.06 | 0.823 | 0.799 | 0.412 | 0.307 | 0.809 | 0.72
M fixed | 1.88 | 1.14 | 1.04 | 0.92 | 1.02 | 0.394 | 0.349 | 0.875 | 0.708
N fixed | 0.635 | 1.02 | 0.927 | 0.904 | 1.08 | 0.7 | 0.454 | 0.753 | 0.773
P fixed | 0.361 | 0.56 | 0.835 | 1.39 | 1.06 | 0.558 | 0.688 | 1.09 | 0.991
Q fixed | 0.812 | 0.625 | 0.996 | 0.983 | 0.804 | 0.676 | 0.613 | 0.988 | 0.752
R fixed | 0.935 | 2.32 | 1.03 | 0.99 | 2.23 | 4.89 | 6.97 | 2.32 | 2.79
V fixed | 1.5 | 1.05 | 1.04 | 0.894 | 0.614 | 0.417 | 0.404 | 0.953 | 0.955
W fixed | 0.596 | 0.761 | 0.849 | 1.08 | 0.633 | 0.437 | 0.409 | 0.672 | 0.753
Y fixed | 0.857 | 1.01 | 0.955 | 0.903 | 1.07 | 0.497 | 0.545 | 0.731 | 0.831
pThr fixed | 0.681 | 0.529 | 0.661 | 0.81 | 0.359 | 0.512 | 0.367 | 0.743 | 0.567
pTyr fixed | 0.778 | 0.681 | 0.97 | 0.875 | 0.801 | 0.44 | 0.552 | 0.76 | 0.791

CSNK1G3, construct: Full length (from UniProt Q9Y6M4)
relative phosphorylation
Settings | at +1 | at +2 | at +3 | at +4 | at -1 | at -2 | at -3 | at -4 | at -5
A fixed | 0.678 | 0.743 | 0.752 | 0.708 | 0.916 | 1.39 | 0.508 | 0.923 | 1.01
D fixed | 0.543 | 0.941 | 2.63 | 1.12 | 0.701 | 1.08 | 5.05 | 1.58 | 1.8
E fixed | 0.611 | 0.607 | 1.46 | 0.928 | 0.788 | 1.27 | 3.58 | 1.78 | 1.62
F fixed | 1.07 | 1.17 | 1.22 | 1.43 | 0.905 | 0.576 | 0.522 | 1.07 | 0.859
G fixed | 0.459 | 0.67 | 0.931 | 1.07 | 0.635 | 0.903 | 0.475 | 0.818 | 0.86
H fixed | 0.841 | 1.44 | 0.901 | 0.991 | 0.949 | 0.716 | 0.548 | 0.898 | 0.988
I fixed | 1.81 | 1.02 | 0.58 | 0.696 | 1.39 | 0.963 | 0.467 | 0.714 | 0.82
K fixed | 0.778 | 0.952 | 0.672 | 0.822 | 1 | 0.832 | 0.652 | 0.763 | 0.896
L fixed | 2.24 | 1.1 | 0.772 | 0.808 | 1.23 | 1.05 | 0.484 | 0.796 | 0.91
M fixed | 1.58 | 0.945 | 0.748 | 0.989 | 1.32 | 0.882 | 0.504 | 0.872 | 0.96
N fixed | 0.721 | 1.06 | 1.05 | 0.947 | 0.781 | 1.57 | 0.645 | 0.801 | 1.04
P fixed | 0.443 | 0.482 | 0.683 | 0.97 | 0.579 | 0.471 | 0.418 | 0.897 | 0.658
Q fixed | 0.843 | 0.864 | 0.869 | 0.879 | 1.1 | 1.26 | 0.528 | 0.788 | 0.79
R fixed | 1.03 | 1.25 | 0.877 | 1.02 | 1.28 | 1.54 | 1.02 | 0.845 | 0.992
V fixed | 1.5 | 0.936 | 0.794 | 0.814 | 1.23 | 1.17 | 0.458 | 0.669 | 0.876
W fixed | 1.01 | 1.23 | 1.11 | 1.48 | 1.22 | 0.715 | 0.581 | 1.69 | 1.05
Y fixed | 0.855 | 1.59 | 0.941 | 1.33 | 0.974 | 0.613 | 0.56 | 1.1 | 0.877
pThr fixed | 0.618 | 0.558 | 1.52 | 2.55 | 0.636 | 4.34 | 144 | 10.2 | 4.37
pTyr fixed | 1.13 | 5.14 | 9.54 | 2.97 | 0.797 | 1.85 | 12.1 | 5.93 | 2.97
